The assay has as its target T1, FL-PYM-GFP (S2 cells) (Drosophila, UniProt P82804 1-207).
T1 construct: Drosophila PYM (wibg, CG30176), full length coding region amplified from ovarian cDNA; also called GFP-tagged FL-PYM; source: S2 cells, transiently transfected, in cytoplasmic extract; not shown: eGFP, C-terminal, kept
T1 sequence (looked up): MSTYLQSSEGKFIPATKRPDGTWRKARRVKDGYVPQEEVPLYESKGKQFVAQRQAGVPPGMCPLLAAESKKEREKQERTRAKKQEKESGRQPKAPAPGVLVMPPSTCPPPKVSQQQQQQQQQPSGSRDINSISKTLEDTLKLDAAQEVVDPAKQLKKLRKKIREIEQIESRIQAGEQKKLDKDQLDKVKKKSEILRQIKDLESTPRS
Kind of assay: co-IP + cross-linking; as the native GFP-Trap IP from S2 cell extracts, but extracts cross-linked with 1 mM DSP for 1 h at 4°C before the IP; blots quantified by densitometry. Conditions: partners not purified.

B1: Y14-Mago heterodimer, endogenous in S2 cells (complex)
chain 1: not shown
chain 2: not shown
notes: Y14 (Tsunagi), Drosophila, endogenous; Mago nashi (Mago), Drosophila, endogenous; also called Mago and Y14; Mago-Y14; source: endogenous, cytoplasmic extract of Drosophila S2 cells
Consider B1, for which the “fold increase of binding upon DSP treatment against native” value came to 1.7 fold.

The record behind these values is PMC4072592, “The EJC Binding and Dissociating Activity of PYM Is Regulated in Drosophila” (PLoS Genetics, 2014).
